Assay results from paper PMC3123459.

Biological target: Acyl-CoA dehydrogenase from Mycobacterium thermoresistibile (Mycobacterium thermoresistibile)
Assay: crystal structure

Acyl-CoA dehydrogenase from Mycobacterium thermoresistibile (enzyme)
stoichiometry N: 4
